Numbering of substitutions follows the chain as printed. Read-outs that look alike come from different tables or passages of the source.

This note sets out measurements from patent publication US20260274928A1 (VIR BIOTECHNOLOGY, published 2026).

In experiment [1] the target is SARS-CoV-2 BA.1 RBD (SARS-CoV-2 BA.1, UniProt P0DTC2 328-531). Nature of the experiment: RBD binding affinity (SPR, see Example 5).
Experiment [2] addresses SARS-CoV-2 BQ.1.1 S glycoprotein (SARS-CoV-2 BQ.1.1). Nature of the experiment: cell-based or functional assay.
Experiment [3] addresses SARS-CoV-2 XBB.1.5 S glycoprotein (SARS-CoV-2 XBB.1.5). Description: cell-based or functional assay.
Experiment [4] concerns the target SARS-CoV-2 BA.5 S glycoprotein (SARS-CoV-2 BA.5). Description: cell-based or functional assay.
For experiment [5], the target named is SARS-CoV-2 BQ.1.1 S glycoprotein (SARS-CoV-2 BQ.1.1). Nature of the experiment: cell-based or functional assay. This is another data set of the same source.
For experiment [6] the target is unchanged. Nature of the experiment: cell-based or functional assay. This is another data set of the same source.

B1: S3L17 (antibody, V domains shown)
VH: EVQLVESGGGLVQPGGSLRLSCAASEIIVSSNYMNWVRQAPGKGLEWVSVIYAGGSTFYADSVRGRFTISRDNSKNTLYLQMNSLRPDDTAIYYCARDLGPWGMDVWGQGTTVTVSS
VL: DIQMTQSPSSLSASVGDRVAITCRASHGINNDLAWYQQKPGKVPKLLIYAASTLQSGVPSRFSGSGSGTDFTLTISSLQPEDVATYYCQHYSSDPRFTFGPGTKVDIK
Turning to B1, in experiment [1], the Kd was found to be 0.08 nM.

B2: S2V29-v1.2 (antibody, V domains shown)
VH: EVQLVESGGSVVQPGRALRLSCAASGITFSSFGMYWVRQAPGKGLEWLGVIAYDGSNTYYADSVKGRFTISRDNSKNTLYLQMNSLRIEDTAVYYCAKDYYPLLSYYYGLDVWGQGTTVTVSS
VL: QSVLTQPRSVSGSPGQSVTISCTGTSSDVGAYNYVSWYQQHPGKAPKFMIYDVDQRPSGVPDRFSGSKSGNTASLIISGLQAEDEADYYCSSYAGSYIWVFGGGTQLTVL
On to B2, for which the “IC50” value in experiment [2] was 9 ng/mL; in experiment [3], 5.2 ng/mL; in experiment [4], 2.6 ng/mL. For the same molecule, the Kd in experiment [1] is 0.05 nM.

B3: S2V29-v37.2 (antibody, V domains shown)
VH: B2 VH with V50Y, N57D
VL: B2 VL
With B3, in experiment [5], the “FC IC50 par/IC50 Var” value turned out to be 1.4 fold. Further, the “IC50” value in experiment [5] worked out at 5.6 ng/mL; in experiment [6], 5 ng/mL; in experiment [2] it was 5.6 ng/mL; in experiment [4] it was 2.1 ng/mL. Besides, the “FC vs S2V29-v1.2” value in experiment [2] was 1.6 fold; in experiment [4] it was 1.2 fold. Also, binding in experiment [1] was characterised by a dissociation constant (Kd) of 0.39 nM.
